This is an account of results in US20240350597A1, “PROTEASE INHIBITORS” (University College Dublin, priority 2023, published 2024).

“Also recorded” adds a separate entry of the source. Read-outs that look alike come from different tables or passages of the source.

The target in assay [1] is T1, TMPRSS2 (Homo sapiens, UniProt O15393). The assay can be described thus: Kinetic analysis of TMPRSS2 inhibition under pseudo first-order conditions. The format is biochemical. Also on record: purchased Cusabio Technology. The conditions noted are these: room temperature, TMPRSS2 0.1 μM. How it is done: For kinetic analysis of TMPRSS2 inhibition, second order inhibition rate constants were determined under pseudo first-order conditions using a range of serpin concentrations, and with TMPRSS2 buffer and substrate detailed above. Reactions were performed at room temperature and residual activity was determined at intervals over a 10 min incubation with a molar excess of serpin over protease. Concentration ranges were 0.12 to 0.44 μM for B3-TMP and 1.0 to 4 μM for A1AT. The apparent first order rate constant kobs for each concentration was calculated from the slope of the natural log of residual activity over time (−kobs). These values were plotted against inhibitor concentration and linear regression analysis of this plot gave the second order inhibition rate constant k2, with standard error determined.

The test system of a further assay is Omicron BA.5 SARS-CoV-2. Format: cell-based.
For another assay, the target named is T2, Cathepsin L (CatL) (Homo sapiens, UniProt P07711).
T2 construct: gift: Dr Matej Vizovišek, Jozef Stefan Institute, Slovenia
Description: Protease inhibition assay, fluorogenic substrate cleavage, cathepsin L. Format: biochemical. The conditions noted are these: excess of serpin over protease, 2 min incubation, substrate Z-FR-AMC. How it is done:
By monitoring the linear rate of cleavage of fluorogenic substrates, protease specificity of purified proteins was assessed. CatL was gifted by Dr Matej Vizovišek, Jozef Stefan Institute, Slovenia. TMPRSS2 was obtained from Cusabio Technology and furin from BioLegend.
Proteases were incubated with a 1:5 molar excess of serpin and residual activity was determined by cleavage of fluorescent substrates. All assays were carried out at room temperature in 96-well plates in a total volume of 100 μL. Residual proteolytic activity was measured using a SpectraMax M3 Microplate Reader (Molecular Devices, Inc), using the appropriate buffer and synthetic fluorogenic peptide substrate: Cathepsin L, Z-FR-AMC (10 μM), 50 mM Na-Acetate, 100 mM NaCl, 1 mM EDTA, pH 5.5; Chymotrypsin, Z-AAPF-AMC (5 μM), PBS, 1 mg/ml BSA; Elastase, Met-O-Suc-AAPV-AMC (10 μM), 50 mM Tris, 120 mM NaCl, pH 8.0, 1 mg/ml BSA; Furin, Boc-RVRR-AMC (50 μM) 20 mM Tris, 1 mM CaCl2), 0.5% Brij-35, pH 9; TMPRSS2, Boc-QAR-AMC (80 μM), PBS; Trypsin, Z-FR-AMC (10 μM), 50 mM Tris, 0.2 mM DTT, 1 mg/ml BSA. The excitation and emission wavelengths used were 380 nm and 460 nm respectively. All assays were performed in triplicate.

Assay [2] concerns the target T1, TMPRSS2. Format: biochemical. Set-up: purchased Cusabio Technology.
Assay [3] concerns SARS-CoV-2 Spike pseudoparticles. Format: cell-based.

T1 sequence (O15393 whole entry): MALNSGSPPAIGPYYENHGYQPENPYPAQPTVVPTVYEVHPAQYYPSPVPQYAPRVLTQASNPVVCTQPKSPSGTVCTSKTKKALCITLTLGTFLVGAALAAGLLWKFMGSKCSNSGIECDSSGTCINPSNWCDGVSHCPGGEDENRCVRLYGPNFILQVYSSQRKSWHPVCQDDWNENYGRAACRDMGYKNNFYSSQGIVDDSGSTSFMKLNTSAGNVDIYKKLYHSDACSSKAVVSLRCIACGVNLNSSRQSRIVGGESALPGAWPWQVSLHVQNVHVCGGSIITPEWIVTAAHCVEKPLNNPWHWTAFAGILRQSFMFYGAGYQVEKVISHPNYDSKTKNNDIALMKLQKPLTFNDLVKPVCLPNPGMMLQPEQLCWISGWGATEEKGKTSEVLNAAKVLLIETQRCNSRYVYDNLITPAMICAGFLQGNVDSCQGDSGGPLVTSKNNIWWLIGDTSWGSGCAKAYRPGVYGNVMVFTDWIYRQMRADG
T2 sequence (P07711 114-333): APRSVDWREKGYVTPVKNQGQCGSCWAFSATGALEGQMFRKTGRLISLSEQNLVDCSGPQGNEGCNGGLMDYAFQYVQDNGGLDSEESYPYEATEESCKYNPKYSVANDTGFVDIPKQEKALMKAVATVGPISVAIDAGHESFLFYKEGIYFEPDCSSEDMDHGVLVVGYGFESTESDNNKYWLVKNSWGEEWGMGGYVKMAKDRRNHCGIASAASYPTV

B1: B3-TMP: SerpinB3 variant with RCL residues 350 to 354 (P4 to P1′) replaced by IQFRV to inhibit TMPRSS2; SEQ ID No. 6 (protein)
chain: MNSLSEANTKFMFDLFQQFRKSKENNIFYSPISITSALGMVLLGAKDNTAQQIKKVLHFDQVTENTTGKAATYHVDRSGNVHHQFQKLLTEFNKSTDAYELKIANKLFGEKTYLFLQEYLDAIKKFYQTSVESVDFANAPEESRKKINSWVESQTNEKIKNLIPEGNIGSNTTLVLVNAIYFKGQWEKKFNKEDTKEEKFWPNKNTYKSIQMMRQYTSFHFASLEDVQAKVLEIPYKGKDLSMIVLLPNEIDGLQKLEEKLTAEKLMEWTSLQNMRETRVDLHLPRFKVEESYDLKDTLRTMGMVDIFNGDADLSGMTGSRGLVLSGVLHKAFVEVTEEGAEAAAATAVIQFRVSPTSTNEEFHCNHPFLFFIRQNKTNSILFYGRFSSP
Consider B1, for which the “second order inhibition rate constant k2 of TMPRSS2 inhibition” value with TMPRSS2 [1] is recorded as “(9±1.1)×10^3 M^−1 s^−1”. In addition, the “inhibition of SARS-CoV-2 Omicron BA.5 infection (in words)” value with Omicron BA.5 SARS-CoV-2 is “greater inhibitor for both viral strains than WT-SerpinB3; also recorded: inhibit Omicron BA.5 infection to a greater extent than the B3-WT”. In the assay with Cathepsin L (CatL), the CatL inhibition turned out to be 81%. For the same molecule, in the assay with TMPRSS2 [2], the “selectivity for TMPRSS2 versus elastase, trypsin, chymotrypsin (in words)” value was “better selectivity for TMPRSS2 than A1AT”. The “inhibition of pseudoparticle entry (in words)” value in assay [3] (6.25 μM to 50 μM, A549-ACE2-TMPRSS2 cells) is “reduce SARS-CoV-2 (D614G) pseudoparticle entry”. The “inhibition of pseudoparticle entry” value in assay [3] (12.5 μM, A549-ACE2-TMPRSS2 cells) is listed as 70%; in assay [3] (50 µM), 90%.

B2: B3-WT: Wild type recombinant SerpinB3 (SCCA-1), 44.5 kDa cross-class inhibitor of cysteine proteases including CatL; SEQ ID No. 5 (protein, listed as Homo sapiens)
chain: MNSLSEANTKFMFDLFQQFRKSKENNIFYSPISITSALGMVLLGAKDNTAQQIKKVLHFDQVTENTTGKAATYHVDRSGNVHHQFQKLLTEFNKSTDAYELKIANKLFGEKTYLFLQEYLDAIKKFYQTSVESVDFANAPEESRKKINSWVESQTNEKIKNLIPEGNIGSNTTLVLVNAIYFKGQWEKKFNKEDTKEEKFWPNKNTYKSIQMMRQYTSFHFASLEDVQAKVLEIPYKGKDLSMIVLLPNEIDGLQKLEEKLTAEKLMEWTSLQNMRETRVDLHLPRFKVEESYDLKDTLRTMGMVDIFNGDADLSGMTGSRGLVLSGVLHKAFVEVTEEGAEAAAATAVVGFGSSPTSTNEEFHCNHPFLFFIRQNKTNSILFYGRFSSP
B2: the “inhibition of SARS-CoV-2 Omicron BA.5 infection (in words)” value with Omicron BA.5 SARS-CoV-2 was “reductions in SARS-CoV-2 infection”. Moreover, the CatL inhibition in the assay with Cathepsin L (CatL) turned out to be 95%.
